According to US20200149053A1, “MICROORGANISMS PROGRAMMED TO PRODUCE IMMUNE MODULATORS AND ANTI-CANCER THERAPEUTICS IN TUMOR CELLS” (Synlogic Operating Company, Inc., priority 2017, published 2020):

Assays:
IgG (coating control) [1] = test: ELISA, IgG coated plate, E. coli extract, anti-V5-HRP, TMB
IgG (coating control) [2] = test: ELISA, IgG coated plate, E. coli extract (1/2), anti-V5-HRP, TMB
[3] = molecular target: biotinylated-mPD1 (mouse) (UniProt Q02242); test: whole cell ELISA, scFv displayed on E. coli Nissle, biotinylated mPD1, streptavidin-HRP, TMB
Biotinylated IgG = test: whole cell ELISA, scFv displayed on E. coli Nissle, biotinylated IgG as negative control, streptavidin-HRP, TMB
NK cells = conditions: upon treatment; cited from earlier work
IgG (coating control) [4] = test: ELISA, IgG coated plate, bacterial supernatant
[5] = molecular target: T1, mouseCD47 (recombinant) (mouse) (UniProt Q61735); test: ELISA, mCD47 coated plate, bacterial supernatant
T1 sequence (looked up): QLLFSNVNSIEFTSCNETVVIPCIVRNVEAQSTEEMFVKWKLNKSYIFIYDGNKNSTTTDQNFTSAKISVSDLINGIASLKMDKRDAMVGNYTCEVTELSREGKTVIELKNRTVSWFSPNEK

[6] = molecular target: T2, recombinant SIRPα (Rndsystems) (mouse, UniProt P97797 32-373); test: flow cytometry competition on CT26 cells
T2 construct: also called recombinant mSIRPα
T2 sequence (looked up): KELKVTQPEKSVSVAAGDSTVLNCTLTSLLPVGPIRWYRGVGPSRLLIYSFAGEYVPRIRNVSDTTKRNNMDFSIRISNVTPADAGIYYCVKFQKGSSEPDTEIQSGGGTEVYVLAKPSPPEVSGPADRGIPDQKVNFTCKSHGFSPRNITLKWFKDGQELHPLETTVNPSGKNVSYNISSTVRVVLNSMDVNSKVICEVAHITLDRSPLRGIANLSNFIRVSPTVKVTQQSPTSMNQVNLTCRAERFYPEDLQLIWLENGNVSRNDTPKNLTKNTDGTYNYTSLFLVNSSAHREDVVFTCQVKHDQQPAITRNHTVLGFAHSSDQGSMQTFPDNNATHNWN

PD1 = molecular target: T3, PD1 (Mus musculus, UniProt Q02242); test: ELISA binding assay of bacterial extracts (J43-scFv); conditions: α-V5-HRP
T3 construct: purchased Rndsystems
T3 sequence (Q02242 25-288): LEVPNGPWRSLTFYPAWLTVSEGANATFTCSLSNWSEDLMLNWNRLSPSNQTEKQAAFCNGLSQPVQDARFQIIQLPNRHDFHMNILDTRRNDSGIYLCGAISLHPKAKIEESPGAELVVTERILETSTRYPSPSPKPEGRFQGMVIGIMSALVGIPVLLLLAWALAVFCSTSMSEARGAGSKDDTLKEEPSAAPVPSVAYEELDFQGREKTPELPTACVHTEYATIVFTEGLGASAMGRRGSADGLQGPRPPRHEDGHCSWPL
Description: E. coli comprising either tet-inducible J43-Anti-PD1-scFv-V5 or wild type controls were grown overnight in LB medium. […] Same amount of tetracycline was added to wild type control cultures.

PD1 on mouse EL4 cells = molecular target: T4, PD1 on mouse EL4 cells (Mus musculus, UniProt Q02242); test: Flow cytometric analysis of anti-PD1-scFv binding to EL4 cells, PDL1 competition
T4 construct: EL4 are a mouse lymphoma cell line which expresses PD1 on its cell surface; endogenous in cells; host or cells: EL4 (mouse lymphoma)
T4 sequence (Q02242 25-288): T3 sequence (Q02242 25-288)
Description: To determine whether anti-PD1-scFv expressed in E. coli binds to surface PD1 on mouse EL4 cells, flow cytometric analysis was performed using EL4 cells. EL4 are a mouse lymphoma cell line which expresses PD1 on its cell surface.
EL4 cells were grown in Dulbecco's Modified Eagle's Medium (DMEM) with 10% FBS. Cells were spun down, supernatant was aspirated, pellet was resuspended in 1 nil D-PBS, transferred into chilled assay tubes (1×10^6 cells), and washed 2-3 times in D-PBS with 0.5% BSA. Cells were resuspended in PBS with 0.5% BSA, to which the purified scFv-V5 and anti-V5-FITC antibody were added and incubated for 1 hour at room temperature. Negative control left out scFv-V5. Cells were resuspended in 0.5 ml PBS and analyzed on a flow cytometer.
EL4 are a mouse lymphoma cell line which expresses PD1 on its cell surface.
EL4 cells were grown in Dulbecco's Modified Eagle's Medium (DMEM) with 10% FBS and 1% Penicillin-Streptomycin Cells were spun down, supernatant was aspirated, pellet was resuspended in 1 ml D-PBS, transferred into chilled assay tubes (1×10^6 cells), and washed 3 times in D-PBS. Cells were resuspended in D-PBS with 0.5% BSA, to which the purified scFv-V5 and anti-V5-FITC antibody were added and incubated for 1 hour at room temperature. Negative control left out secreted J43-scFv-V5. Cells were then resuspended in 0.5 ml PBS and analyzed on a flow cytometer. Results are shown in (FIG. 64).
Next, a competition assay was conducted to determine whether PDL1 could inhibit the binding of the anti-PD1-scFv secreted by the genetically engineered bacteria from binding to murine PD1. EL4 cells were grown and flow cytometry protocol was conducted essentially as described above except that PDL1 was added at various concentrations ([…]) during the incubation of the secreted anti-PD1-scFv-V5. Rat-IgG was used as a negative control of secreted scFv.

[7] = molecular target: T5, secreted mCD40L1 (47-260) (mouse, UniProt P27548 47-260); test: ELISA, mCD40 coated plate
T5 construct: range 47-260; also called Secreted CD40-L1; SYN3366 supernatant
T5 sequence (looked up): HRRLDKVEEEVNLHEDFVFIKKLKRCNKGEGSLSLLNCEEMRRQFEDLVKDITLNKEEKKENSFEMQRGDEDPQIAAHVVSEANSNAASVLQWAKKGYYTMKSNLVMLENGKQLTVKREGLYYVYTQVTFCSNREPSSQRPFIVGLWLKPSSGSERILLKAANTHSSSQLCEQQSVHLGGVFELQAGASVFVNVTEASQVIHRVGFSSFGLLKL

mCD40 = molecular target: T6, mCD40 (Mus musculus, UniProt P27512); test: CD40 ELISA binding assay, plate coated with mCD40; conditions: clarified supernatant; for CD40 ELISA signal, coating material IgG / CD40 ELISA signal, coating material PBS: control coating
T6 sequence (P27512 20-289): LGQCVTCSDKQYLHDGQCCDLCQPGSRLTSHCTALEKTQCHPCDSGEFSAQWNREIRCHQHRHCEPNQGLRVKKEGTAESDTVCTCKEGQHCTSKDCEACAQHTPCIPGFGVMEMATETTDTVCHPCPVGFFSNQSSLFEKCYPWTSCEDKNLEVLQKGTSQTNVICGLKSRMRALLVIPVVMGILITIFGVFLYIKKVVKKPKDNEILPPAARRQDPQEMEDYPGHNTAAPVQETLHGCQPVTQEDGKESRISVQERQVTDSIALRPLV
Description: (§1) Cultures were diluted 1:100 in LB and grown shaking (200 rpm) to an optical density of 0.8, at which time the cultures were cooled down to room temperature and anhydrous tetracycline (ATC) was added to cultures at a concentration of 100 ng/mL, to induce expression of mCD40L1 and mCD40L2.
(§2) After 18 hours of induction, cells were spun down, and supernatant was collected. To generate cell free medium, the clarified supernatant was further filtered through a 0.22 micron filter to remove any remaining bacteria and placed on ice.

anti-mCD40L antibody = test: CD40 ELISA binding assay, plate coated with anti-mCD40L antibody; conditions: clarified supernatant
Description: as §1, §2

J43-Anti-PD1-scFv-V5
ELISA signal at 450 nm (IgG (coating control) [1]): 0.13
ELISA signal at 450 nm (IgG (coating control) [2]): 0.11

LppOmpA-FLAG-J43scFv-V5-HIS displayed on E. coli Nissle SYN2798
OD450 [3]: 0.421
OD450 (Biotinylated IgG): 0.133

recombinant human IL-15: recombinant human IL-15 of a first-in-human clinical trial
expansion of NK cells (NK cells): 10 fold
proliferation of γδT cells and CD8+ T cells (NK cells): significantly increased

B1: secreted anti-mCD47 scFv (scFv, from a related filing)
scFv: QVKLLQSGAALVKPGASVKMSCQASGYSFTDYWVTWVKQSHGQSLEWIGEIYPSNTVTNFNDNFKGKATLTVDKSTSTAYMELSRLTSEDSAIYYCTRIGNSGYRVGWFIYWGQGTLVTVLSGGGGSGGGGSGGGGSDTVLTQSPALAVSPGERVTISCKASESVSSHMHWYQQKPGQQPKLLIYKASNLASGVPARFSGSGSGTDFTLTIDPVEADDTATYFCQQGWNGPFTFGAGTRLELKRADAAGSGELGGSGKPIPNPLLGLDSTGSGHHHHHH
ELISA signal (IgG (coating control) [4]): 0.067
ELISA signal [5]: 0.527

B2: CD47 on mouse CT26 cells (receptor, UniProt Q61735 19-303, looked up)
chain: QLLFSNVNSIEFTSCNETVVIPCIVRNVEAQSTEEMFVKWKLNKSYIFIYDGNKNSTTTDQNFTSAKISVSDLINGIASLKMDKRDAMVGNYTCEVTELSREGKTVIELKNRTVSWFSPNEKILIVIFPILAILLFWGKFGILTLKYKSSHTNKRIILLLVAGLVLTVIVVVGAILLIPGEKPVKNASGLGLIVISTGILILLQYNVFMTAFGMTSFTIAILITQVLGYVLALVGLCLCIMACEPVHGPLLISGLGIIALAELLGLVYMKFVASNQRTIQPPRNR
notes: whole, on cells; also called murine CD47 on CT26 cells
binding result [6]: binds

B3: J43-scFv-V5: anti-PD1 single-chain variable fragment based on J43 monoclonal antibody, V5 tagged, expressed in E. coli (protein)
scFv: MQLEVRLLESGGGLVKPEGSLKLSCVASGFTFSDYFMSWVRQAPGKGLEWVAHIYTKSYNYATYYSGSVKGRFTISRDDSRSMVYLQMNNLRTEDTATYYCTRDGSGYPSLDFWGQGTQVTVSSGGGGSGGGGSGGGGSYELTQPPSASVNVGETVKITCSGDQLPKYFADWFHQRSDQTILQVIYDDNKRPSGIPERISGSSSGTTATLTIRDVRAEDEGDYYCFSGYVDSDSKLYVFGSGTQLTVLGKGELNSKLEGKPIPNPLLGLDSTRTGHHHHHH
Signal intensity at 450 nm, IgG coating (PD1; bacterial extract (1/2)): 0.11
Signal intensity at 450 nm, PBS coating (PD1; bacterial extract (1/2)): 0.10
Signal intensity at 450 nm, mPD1 coating (PD1; bacterial extract (1/2)): 0.90
Signal intensity at 450 nm, IgG coating (PD1; bacterial extract): 0.13
Signal intensity at 450 nm, PBS coating (PD1; bacterial extract): 0.11
Signal intensity at 450 nm, mPD1 coating (PD1; bacterial extract): 1.41
PDL1 competition against binding to mPD1 on EL4 cells (PD1 on mouse EL4 cells; PDL1 added at various concentrations): PDL1 competed in a dose dependent manner
binding to surface PD1 on EL4 cells (flow cytometry) (PD1 on mouse EL4 cells; purified scFv, anti-V5-FITC): population shift is observed
staining of EL4 cells with different amounts of secreted scFv (PD1 on mouse EL4 cells; secreted scFv, increasing amounts): dose-dependent staining of the EL4 cells was observed
binding to PD1 on EL4 cells (flow cytometry) (PD1 on mouse EL4 cells; secreted scFv, anti-V5-FITC): population shift is observed

B4: mCD40 (receptor, mouse, UniProt P27512 24-193, looked up)
chain: VTCSDKQYLHDGQCCDLCQPGSRLTSHCTALEKTQCHPCDSGEFSAQWNREIRCHQHRHCEPNQGLRVKKEGTAESDTVCTCKEGQHCTSKDCEACAQHTPCIPGFGVMEMATETTDTVCHPCPVGFFSNQSSLFEKCYPWTSCEDKNLEVLQKGTSQTNVICGLKSRMR
binding result [7]: binds

B5: Secreted CD40-L2: mCD40L2 (112-260), soluble form of mCD40L, secreted by SYN3367 (protein)
chain: MQRGDEDPQIAAHVVSEANSNAASVLQWAKKGYYTMKSNLVMLENGKQLTVKREGLYYVYTQVTFCSNREPSSQRPFIVGLWLKPSSGSERILLKAANTHSSSQLCEQQSVHLGGVFELQAGASVFVNVTEASQVIHRVGFSSFGLLKL
modifications: left off: small tags and cut ends
CD40 ELISA signal, coating material mCD40 (mCD40): 0.639
CD40 ELISA signal, coating material IgG (mCD40): 0.052
CD40 ELISA signal, coating material PBS (mCD40): 0.05
CD40 ELISA signal, coating material Anti-mCD40L (anti-mCD40L antibody): 0.825

B6: Secreted CD40-L1: mCD40L1 (47-260), extracellular portion of mCD40L, secreted by SYN3366 (protein)
chain: T5 sequence (looked up)
modifications: left off: small tags and cut ends
CD40 ELISA signal, coating material mCD40 (mCD40): 0.231
CD40 ELISA signal, coating material IgG (mCD40): 0.052
CD40 ELISA signal, coating material PBS (mCD40): 0.049
CD40 ELISA signal, coating material Anti-mCD40L (anti-mCD40L antibody): 0.394
